For 140 substances, amyloid nucleation score results are on record in the supplement of paper PMC12042874.

± gives the uncertainty stated by the source.

The data set in a line: amyloid nucleation score (Sup35N fusion, yeast selection) (log enrichment); library NNK2; higher = more nucleation; inactive = no reads after selection. In a few lines: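 Output and input plasmid inserts were sequenced by Illumina after psi-negative yeast carrying Sup35N fused to peptides of 20 random codons had been induced 24 hours with 100 μM copper sulfate and grown 7 days at 30°C on medium lacking adenine and uracil. The nucleation score is the DiMSum log enrichment of output over input reads, centred on the mode score of non-aggregating sequences. Sequences with under 100 input reads were excluded.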
As to YNKGPLTGMFYMEGASVNIC, the amyloid nucleation score entry was “inactive”.

For the substance PSVFEGRK, the amyloid nucleation score was -0.843 ± 0.63.

As to YGRRGELN, the amyloid nucleation score was -0.422 ± 1.1.

As for LGLLFAINTVLSSQLR, the amyloid nucleation score was determined as 7.703 ± 0.076.

As to PLHHSLRTYVALGLR, the amyloid nucleation score turned out to be 0.306 ± 0.65.

For the substance ILVREHFVSIKFLSR, the amyloid nucleation score is -1.21 ± 1.1.

Substance YSFLHVIGANKFARACNNWS registered an amyloid nucleation score of -0.565 ± 0.78.

MRAYFYNKRVISYSLISFPV gave an amyloid nucleation score of -1.45 ± 0.78.

As to ICGYEACNNIGP, the amyloid nucleation score is -1.12 ± 0.62.

As for LGRCY, the amyloid nucleation score was 2.72 ± 0.062.

In turn, LLHAVQDHVGLPTVYRRCSR registered an amyloid nucleation score of 2.79 ± 0.11.

As to YFNGL, the amyloid nucleation score entry is “inactive”.

As to STCFLTFVY, the amyloid nucleation score result is “inactive”.

RECLRLDGGPMNWV returned an amyloid nucleation score of 0.192 ± 1.

On to CHWSTGRYRDVMICVLWGIS, for which the amyloid nucleation score was -0.049 ± 0.34.

For NRKLWVYIFSELSDDGLQFR, the amyloid nucleation score entry is “inactive”.

In turn, FSDWIWTYCSQSFNGQE returned an amyloid nucleation score of -0.817 ± 0.76.

NVITRGM had an amyloid nucleation score of 0.899 ± 0.38.

As to GFSEL, the amyloid nucleation score came to 0.306 ± 0.65.

Substance NELVSLQVIWIF came in with an amyloid nucleation score of -0.098 ± 0.79.

As for DSYGSFVKLMTVSVYMKGVF, the amyloid nucleation score entry is “inactive”.

As to LIWGTPYKAW, the amyloid nucleation score is 0.859 ± 0.41.

With IETNTSGSPIVPKDDLYNSY, the amyloid nucleation score is -0.672 ± 0.55.

In turn, VLRANGCWLFMLHNLIYLWL returned an amyloid nucleation score of 0.172 ± 0.65.

Consider FYVNSWPSPLGTYWRGYNGR, for which the amyloid nucleation score was found to be 0.106 ± 1.

The substance YPCVMFFPEPGEYCLVYRC came in with an amyloid nucleation score of -0.608 ± 1.1.

Substance TVFYIYMGQDDG yielded an amyloid nucleation score of 5.12 ± 0.1.

In the case of SLQFPISVNTYGDESCNSTV, the amyloid nucleation score is -0.424 ± 1.1.

The substance TNATSGGHMLMIYEDFNVYL returned an amyloid nucleation score of 2.49 ± 0.069.

With RQVAPMHLYIYSACNGAKNR, the amyloid nucleation score is 7.095 ± 0.062.

Substance WGHLFRSPSRSSRFYRVLPA yielded an amyloid nucleation score of -0.159 ± 1.1.

Take LFSHFYSYDY: the amyloid nucleation score is -0.317 ± 1.1.

The substance YLGMLYFLVASHASDFATYW returned an amyloid nucleation score of 4.16 ± 0.051.

The substance TVMKDYMALESSSYVNPMLI came in with an amyloid nucleation score of -0.251 ± 0.76.

FYEHRIIFFVLGFFNATTGS: the amyloid nucleation score entry was “inactive”.

In the case of YDYYLMVISFRFVNFYNGVG, the amyloid nucleation score entry is “inactive”.

As for ATHKVWFESGYAHTPLVYLF, the amyloid nucleation score was -0.588 ± 0.78.

As for KAYCVHSPVVCISGRVLDSG, the amyloid nucleation score was -1 ± 1.1.

LRYSTSHSKNRRSDALNIKG: the amyloid nucleation score is -0.739 ± 0.45.

As for TCSCSLVFYMILARG, the amyloid nucleation score was -0.053 ± 0.63.

TFAPDLS returned an amyloid nucleation score of -0.053 ± 0.56.

YYGQSPALDRR gave an amyloid nucleation score of -0.238 ± 0.45.

Substance YVCGRENILFFERLKS showed an amyloid nucleation score of -0.327 ± 0.45.

Regarding CFGYWHSVRARCLRKVGHRT, the amyloid nucleation score amounted to 0.546 ± 0.38.

In turn, NLLNKTWFVSILIKHTCMYS came in with an amyloid nucleation score of 0.659 ± 0.56.

Regarding SRVVGNRMYRSGLSRSSLLH, the amyloid nucleation score is -0.263 ± 0.65.

Substance VDVVG had an amyloid nucleation score of 0.299 ± 0.65.

For VYYTCYDE, the amyloid nucleation score is 0.024 ± 0.4.

The substance HKCTSAV had an amyloid nucleation score of 0.229 ± 0.61.

On to YVHVNIRYFYSLGDAVDKMP, for which the amyloid nucleation score was found to be 4.86 ± 0.11.

Substance IPKKSNLFLQMETMQLLFFD showed an amyloid nucleation score of 2.67 ± 0.17.

On to VAVLKGVGDSPNLAGDSKWD, for which the amyloid nucleation score came out at 0.355 ± 0.56.

Turning to NKTTFSICDAYDGYREWTDN, the amyloid nucleation score was -1.17 ± 0.45.

For the substance FGLLWNNQSWLVARVSCSNL, the amyloid nucleation score is -0.04 ± 0.36.

Turning to PCLRKNRYRLWLYTMVIQTQ, the amyloid nucleation score stood at 0.806 ± 0.32.

In turn, TKMYVD gave an amyloid nucleation score of -0.573 ± 1.1.

The substance RVLVVYRSLKVAESLSLTSV had an amyloid nucleation score of 0.093 ± 0.33.

The substance CNVDYLSDVYYHVPMQDQSL displayed an amyloid nucleation score of 0.368 ± 0.48.

For CVAVDDD, the amyloid nucleation score came out at 0.624 ± 0.46.

As for YMADSPLELDSSMTDYLCPV, the amyloid nucleation score was found to be 4.18 ± 0.069.

Consider LKHKHRNMRITCSASI, for which the amyloid nucleation score was -0.269 ± 0.25.

Consider DRYNHKSSMIREVRLLIASY, for which the amyloid nucleation score is -0.123 ± 0.76.

For SIYKIILNSILPPHYNFLTY, the amyloid nucleation score is -1.21 ± 1.

Take WVGGYIQLFYVTRPQVSGRP: the amyloid nucleation score worked out at 3.17 ± 0.061.

For VNASD, the amyloid nucleation score is 2.3 ± 0.25.

LSRFNFSNVLLRRNMSARA displayed an amyloid nucleation score of -1.78 ± 0.62.

The substance FIRQKGYTVFLVCGNYVWMT came in with an amyloid nucleation score of 5.979 ± 0.056.

GHLYSISCVFNI: the amyloid nucleation score stood at 8.633 ± 0.044.

Regarding QTLAYTSDKTS, the amyloid nucleation score stood at 0.549 ± 0.45.

VIRVESCPVYFYLTTRTAGS displayed an amyloid nucleation score of 0.633 ± 0.8.

With ENGRYHFFKAEHWFCRLMMM, the amyloid nucleation score entry is “inactive”.

The substance NQLIGHVFSFVDKSKSFSSS gave an amyloid nucleation score of 0.243 ± 0.56.

SEWDLRVLTWYMWLFVPLVQ displayed an amyloid nucleation score of -0.477 ± 0.39.

The substance NIIFLGVGSVFKNWRTTILS had an amyloid nucleation score of 4.02 ± 0.049.

Substance VEIFNLMSGTIIPGLSKLMK displayed an amyloid nucleation score of -2.02 ± 0.45.

Regarding HKLTRRKWNCLRNWKLNLHQ, the amyloid nucleation score was -0.953 ± 0.54.

On to LYLGMDYWWDV, for which the amyloid nucleation score is -0.164 ± 0.33.

On to CVYWWASGE, for which the amyloid nucleation score result is “inactive”.

As for MCQDGCHGFLVTADQPQSGA, the amyloid nucleation score was -0.148 ± 0.42.

The substance NISFADSCMNFIRYY gave an amyloid nucleation score of 2.4 ± 0.12.

Take MGCICWVDCKPYDFGMTVVM: the amyloid nucleation score is -0.726 ± 0.49.

Take GSNETPHLDALSPSALRMGH: the amyloid nucleation score amounted to 0.103 ± 0.63.

Substance KKHIWGCMRYKMLTL came in with an amyloid nucleation score of -0.393 ± 1.1.

Turning to ELWVSQTTNEFSFVVGHVVC, the amyloid nucleation score came to 0.025 ± 0.5.

NRSLGNHAEYNHASRLKGDS came in with an amyloid nucleation score of -0.658 ± 0.31.

QCGGIGFLILLNVCGDGLWI yielded an amyloid nucleation score of 4.37 ± 0.092.

For the substance THIAVIGISGTDEENLKLGR, the amyloid nucleation score turned out to be 6.439 ± 0.026.

The substance CWCSLRRFTMLCNMRMNWDN showed an amyloid nucleation score of 1.91 ± 0.086.

Consider EFQIMFVFHWT, for which the amyloid nucleation score entry is “inactive”.

Substance CDYYLFLCIYRSQNVGTEGG yielded an amyloid nucleation score of 6.783 ± 0.063.

The substance GMLRGSK had an amyloid nucleation score of -0.359 ± 0.39.

On to LSTSWQRLVTILPLEWYHS, for which the amyloid nucleation score was 0.052 ± 0.26.

The substance FRVIWVVLVACQVSFHVRFV displayed an amyloid nucleation score of -0.283 ± 1.

In turn, LYWYKY registered an amyloid nucleation score of -0.414 ± 0.79.

In turn, FCAMGGPSRGLVNRWFGS showed an amyloid nucleation score of -0.746 ± 0.41.

For the substance YHRYAAS, the amyloid nucleation score is -0.077 ± 0.39.

Consider MNELVIIGILMCCTDF, for which the amyloid nucleation score was 8.484 ± 0.027.

In the case of RFVDEPWNTRDTDFLYV, the amyloid nucleation score is -0.368 ± 1.1.

Substance PDLCEFLMLYMMITLNFCIN came in with an amyloid nucleation score of -0.214 ± 1.

In turn, GIIGYDVKNKHHLTVGLRFI came in with an amyloid nucleation score of -0.285 ± 0.24.

Substance KDGSFSPISL had an amyloid nucleation score of -0.116 ± 0.35.

YLMSFGPWGNYYFRSCKLWL registered an amyloid nucleation score of 6.42 ± 0.082.

Regarding KDCISLDSIV, the amyloid nucleation score result was “inactive”.

The substance ITSNSVHIGITNYYRRELDQ returned an amyloid nucleation score of 5.32 ± 0.056.

With GRLLQGWLIAEHVITVHFPM, the amyloid nucleation score result is “inactive”.

The substance CMFPSVCQPLTGMTVYGNST displayed an amyloid nucleation score of -0.084 ± 0.48.

Turning to TPWSSVWSVALSGARMGPRS, the amyloid nucleation score was found to be 3.71 ± 0.079.

As to KRFIESNIVIQSDLTSLRRK, the amyloid nucleation score was -0.184 ± 1.1.

The substance YVCFQFFDTC gave an amyloid nucleation score of 8.406 ± 0.038.

Take NCWRNGCVQLFRWY: the amyloid nucleation score was found to be 5.15 ± 0.092.

IKYRFGGLGPRPPNGRRFE: the amyloid nucleation score worked out at 0.635 ± 0.65.

Take TITILV: the amyloid nucleation score was 0.089 ± 0.23.

The substance DHSEYSVITKFVLHRSCSQG showed an amyloid nucleation score of 8.451 ± 0.067.

QGCMVSRNRVQHVVGSGLRW gave an amyloid nucleation score of 0.727 ± 0.38.

Turning to QKGYN, the amyloid nucleation score entry is “inactive”.

As for LVRSVFIRYCISIPCRTRVL, the amyloid nucleation score is 0.034 ± 1.1.

Take SGFLIRKHAKLYKPDQPLLV: the amyloid nucleation score was 0.101 ± 0.54.

LVSESTLINSFLQIWFWSTL returned an amyloid nucleation score of -0.324 ± 1.1.

As for FNNMWYSFKQSLSACSVGRR, the amyloid nucleation score entry was “inactive”.

For the substance NELCRKPLNLGCISSYVFIE, the amyloid nucleation score is -0.584 ± 0.3.

As to NADKVQGMRMNRDWYSWCCL, the amyloid nucleation score is 5.323 ± 0.038.

In turn, IVHYVFFWMGGILGNHASFP registered an amyloid nucleation score of -1.31 ± 1.1.

With CGLKDTTKLAVDVTPQNM, the amyloid nucleation score was found to be 0.908 ± 0.3.

For SVQKIEIMYYRRKTGVYEFE, the amyloid nucleation score amounted to 3.4 ± 0.055.

On to AFDTTPKC, for which the amyloid nucleation score worked out at 0.275 ± 0.32.

Substance GSYFGHNIHLGAVWPIIGYP displayed an amyloid nucleation score of 0.117 ± 0.3.

Substance WDLLLCNTKFFEIRIKADTL returned an amyloid nucleation score of 3.94 ± 0.094.

For VYSPAIFTNVFSYVSCEEER, the amyloid nucleation score was found to be 6.56 ± 0.072.

FGYKR showed an amyloid nucleation score of -0.828 ± 0.61.

Regarding SIWLFYHILVFVLMPFAVAF, the amyloid nucleation score result was “inactive”.

NDKVFYGRFSFHHVGHWCRV had an amyloid nucleation score of -0.506 ± 0.41.

Regarding VRALRQPAT, the amyloid nucleation score stood at 0.567 ± 0.27.

For TNCINM, the amyloid nucleation score came out at 5.49 ± 0.055.

Regarding SVLAAP, the amyloid nucleation score result was “inactive”.

For ALLWCQMWERDRSEFPIGGF, the amyloid nucleation score was 1.2 ± 0.45.

As for SYRSRVQYLCGNSMCLHAPI, the amyloid nucleation score amounted to 5.15 ± 0.098.

As to RNYLNMVYGLFFCIHCSCFS, the amyloid nucleation score amounted to 5.853 ± 0.05.

For the substance IPFIRMFVSFNNLQSISIPD, the amyloid nucleation score was determined as 5.534 ± 0.033.

For the substance YMSVSSKGQRVCFTT, the amyloid nucleation score is -0.488 ± 0.63.

For the substance RCMGPIVPFDVNS, the amyloid nucleation score was -0.704 ± 0.33.
